Measured values as given in PMC3771942 (Molecular Biology of the Cell, 2013).

Molecular target: GST-Rho-G17A (UniProt P61586 1-193, G17A)
Experiment: pull-down

Chain of GST-Rho-G17A (P61586 whole entry G17A): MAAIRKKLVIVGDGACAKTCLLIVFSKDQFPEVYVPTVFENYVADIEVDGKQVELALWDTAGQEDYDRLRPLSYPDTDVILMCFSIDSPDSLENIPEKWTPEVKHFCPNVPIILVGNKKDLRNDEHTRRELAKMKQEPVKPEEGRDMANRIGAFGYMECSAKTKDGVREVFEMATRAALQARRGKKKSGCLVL

B1: mCh-LARG-W769A (natural protein, UniProt Q9NZN5 1-1544, looked up)
chain: MSGTQSTITDRFPLKKPIRHGSILNRESPTDKKQKVERIASHDFDPTDSSSKKTKSSSEESRSEIYGLVQRCVIIQKDDNGFGLTVSGDNPVFVQSVKEDGAAMRAGVQTGDRIIKVNGTLVTHSNHLEVVKLIKSGSYVALTVQGRPPGSPQIPLADSEVEPSVIGHMSPIMTSPHSPGASGNMERITSPVLMGEENNVVHNQKVEILRKMLQKEQERLQLLQEDYNRTPAQRLLKEIQEAKKHIPQLQEQLSKATGSAQDGAVVTPSRPLGDTLTVSEAETDPGDVLGRTDCSSGDASRPSSDNADSPKSGPKERIYLEENPEKSETIQDTDTQSLVGSPSTRIAPHIIGAEDDDFGTEHEQINGQCSCFQSIELLKSRPAHLAVFLHHVVSQFDPATLLCYLYSDLYKHTNSKETRRIFLEFHQFFLDRSAHLKVSVPDEMSADLEKRRPELIPEDLHRHYIQTMQERVHPEVQRHLEDFRQKRSMGLTLAESELTKLDAERDKDRLTLEKERTCAEQIVAKIEEVLMTAQAVEEDKSSTMQYVILMYMKHLGVKVKEPRNLEHKRGRIGFLPKIKQSMKKDKEGEEKGKRRGFPSILGPPRRPSRHDNSAIGRAMELQKARHPKHLSTPSSVSPEPQDSAKLRQSGLANEGTDAGYLPANSMSSVASGASFSQEGGKENDTGSKQVGETSAPGDTLDGTPRTLNTVFDFPPPPLDQVQEEECEVERVTEHGTPKPFRKFDSVAFGESQSEDEQFENDLETDPPNAQQLVSREVLLGLKPCEIKRQEVINELFYTERAHVRTLKVLDQVFYQRVSREGILSPSELRKIFSNLEDILQLHIGLNEQMKAVRKRNETSVIDQIGEDLLTWFSGPGEEKLKHAAATFCSNQPFALEMIKSRQKKDSRFQTFVQDAESNPLCRRLQLKDIIPTQMQRLTKYPLLLDNIAKYTEWPTEREKVKKAADHCRQILNYVNQAVKEAENKQRLEDYQRRLDTSSLKLSEYPNVEELRNLDLTKRKMIHEGPLVWKVNRDKTIDLYTLLLEDILVLLQKQDDRLVLRCHSKILASTADSKHTFSPVIKLSTVLVRQVATDNKALFVISMSDNGAQIYELVAQTVSEKTVWQDLICRMAASVKEQSTKPIPLPQSTPGEGDNDEEDPSKLKEEQHGISVTGLQSPDRDLGLESTLISSKPQSHSLSTSGKSEVRDLFVAERQFAKEQHTDGTLKEVGEDYQIAIPDSHLPVSEERWALDALRNLGLLKQLLVQQLGLTEKSVQEDWQHFPRYRTASQGPQTDSVIQNSENIKAYHSGEGHMPFRTGTGDIATCYSPRTSTESFAPRDSVGLAPQDSQASNILVMDHMIMTPEMPTMEPEGGLDDSGEHFFDAREAHSDENPSEGDGAVNKEEKDVNLRISGNYLILDGYDPVQESSTDEEVASSLTLQPMTGIPAVESTHQQQHSPQNTHSDGAISPFTPEFLVQQRWGAMEYSCFEIQSPSSCADSQSQIMEYIHKIEADLEHLKKVEESYTILCQRLAGSALTDKHSDKS
fold decrease in pull down against wild-type LARG: 5 fold
